# Experimental data: the DeepSol protein solubility set
# Assay: soluble on expression in E. coli; label from the status in PepcDB or PDB records
row,Sequence,soluble on expression in E. coli
1,MPQNAQEYYEKVKKFTKKKDGAIRAIEDTKKAMEKKAATKSAKAGRKLQASRKKHWYDRFRWFVSSDGFLVVGGRDADTNEEIFKKYMEKRDIVFHTQTPGAPLTVVKTGGKEVPDSTLQEVSQFAVSYSSLWKAGQFSGDCYWIKSEQVTKTPESGEYLKKGAFVIRGERNYFKDVPLGIAVGLELKGETRIIGGPASAVRKHGDYILEIIPGKFNQNDISKKIYRIYADELNDPRFVKQIASPDQIAMMIPAGESDLRNQKPEKKGQGFGPEGEGYETPEMEAGFEDLKGEIDEESGENAGEEFADEEFAEEIGEGSEVKVKAEAREGNEEIIEIRGVKKE,not soluble
2,MQNIPPQVQAMLGQLDTYQQQLQLVIQQKQKVQADLNEAKKALEEIETLPDDAQIYKTVGTLIVKTTKEKAVQELKEKIETLEVRLNALNRQEQKINEKVKELTQKIQAALRPPTAG,soluble
3,MSLDIKTLKGFKDYLPKDSLIRIHIVRQIFSVLNSYNFDLIDTPVLEYSDLLLKKSGDETEKQIYRFKDNGGRDVSMRFDLTVPFARFVATNISALKLPFRRSQFGKVFRGENSQKGRYREFMQFDFDIVGEDTFRGDAEILSVVYYGLEEIFLNFIEGINKKFIIHYSHIGILNSFFEKLGLKEKSIFILRNIDKIDKIGIDKVKEALLLEIEKEAVDSILSLVSLQGTFKDKIQALKSILGDNESIKRVEDVFQHLSLLKIQDSFNLNLKISRGLDYYTGIVFESEVFGSNMGSVCSGGRYDNLVSSFSNSIQKISGVGGSFGVDRIKDIIDLEKFSYIKIFVTKARSKVLIVNLDSALQNYYYELATRFRNHDYSKVKNISCEVYFKNKNGKNIKEQIEYALSKEIRFLVFVGQEEYKENKMKVRDLTKKEELLLSFEESINLIKCNEKLEGHHHHHH,soluble
4,MGSDKIHHHHHHMLLHSAWPRLLCPSPKAKHLKDPAMFELDHDLAQDIVDRAMAILPCNVNVMDSQGLILGSGEPERINTRHEGAQLVLANGRIVELDTDAAKCLKGVQPGVNLPLMLDGRLMGVLGLTGDPQQVRTYGELVRMTAEMLLAQRNLQADQQWRRQRCDDLLALLLGGSGNSPRLLDEARQLGLKPQLPRIPCLFEITSGPPAEALAAWLMSRYPDSWCVSPARQSLLWCRPAGVALDELRLLERLQRHGWDIERLALGSAAQSLEQLRRGYRRVRDLLAYGREVLPSERLLSLQRYRLPALLWRHRNDDALDELLEPLQRIRAKDSSGQLLATLRAWCAHDGQSQSCADALGIHRNSLRYRLERIAELGEVDPLRLEGMLSLYLGLQLLPTD,not soluble
5,MSKEKYSFEDLIKVMEELRKKCPWDREQTHESLKKYLIEEAYEVLDAIDSKDDEKLKEELGDLLLQVVFHSQIAKERGAFDINDVIDTLVKKLIERHPHVFGCANPEDVLKNWEKKKMEKRKSIFEGIPKHLPALMRSQKLQDRTSQVGFDFQDISQVFEKIQEEINELKESLEKGDRENIKHEIGDILTAVVELARFVNVDAEEALQEANERFIRRFSYIEKKAKEEGRKLEDMSLEEMDKLWMEAKKLEEQGKLS,soluble
6,MGSDKIHHHHHHMTHYKNNIDEAATLINSEGSAWNAINPESVARMRLQNRFKTGLDIAKYTAKIMREDMDNYDKDTSQYTQSLGCWHGFIAQQKMISIKKHLLTTKRRYLYLSGWMVAALRSEFGPLPDQSMHEKTSVAALIKELYTFLRQADARELGGLFRELDSAKESDKAAIQHKIENFETHVVPIIADIDAGFGNEEATYLMAKQMIEAGACCIQLENQVSDVKQCGHQDGKVTVPHVEFLAKINAVRYAFLELGIDDGVIVARTDSLGAGLTQKIAVTKEAGDLGDLYNSFLEVEAVDAAKLENGDVVFKQGGKLVKPARLPNGLFKFRAGTGEERCVLDCITSLQNGADLLWIETEKPHVSQIGGMVNEIRKVVPNAKLVYNNSPSFNWTLNFRQQVFDAMQKAGQDVSAYDRAQLMSVDYDGTELAIQADEKIRTFQSDSAREAGIFHHLITLPTYHTAALSTDNLAKEYFGDQGMLGYVANVQRKEIRQGIACVKHQNMAGSDIGDAHKEYFSGDQALKASGKDNTMNQF,not soluble
7,MSRIRSNNDNIIILTDEQRKTVGRIAGRSQNRNTSKKIADGPYFLPRYRIRDNAERSVGARFKSLPQKEQDEVVNEAFSNLREYLKKREPFYAKLRKANSKYSSKPKEREKSVDSNDEADRRNKGNKKTQKNASKNCQIEKSSNNSGILKKSGSGISVASKPKKSVAFAPGVYEDLSTDDDLEFLNSVIVNSDRPTSQCDNPARRMCGRPPTKHRDTEQSQEITGSKKQKIFPTPHEKPAWWSFRIPKKRAQ,soluble
8,MGSDKIHHHHHHMINTDHPIRIAIAGLGFGESVHIPASLSNKNIELVGLWHPRPERLKEACNKHNLRAYETWEDLVNDSKVDGIIIATPPAPRYELALEAIKGGKHLLLEKPTCLNAYEVMELQRNALKRNLKIAVDYEYRAVPLFMQAKRIITEKKLDEPYFVKLDWLMSSRANPDRPWNWYSDENSGGGVLGALGTHAFDMIHWLIGPTHSLSAINSTSIEERECPQSKTIKKVTSEDVSISQLQIKSINNNLIPAQVNLSAVTKQSRGFSLEIYGSNGTLVLSSENQNDYVHGFGLWYSNKGDVLKNIQPDSDLSFSKIWTDGRIAPVARIQNWWAQSIADGTPVIPGLVEGLASQIVCDKVKESNSIGMKIEIN,not soluble
9,MGSDKIHHHHHHMISFFLSDLIKSILNIQDNNISFSEEECCQVTQKGDYLLKVFKGFLKSDYCTCPHCSSKNIVKNGSRHRKIKYIPIQNYNIELELTVQRYICKDCKKNFSPSTNIVSDNSSISNNLKYAIALELQKNISLTSIAKRYNISIPSVQRIMDNCYSDFKVNKKHLPEAICIDEFKSVKNIDGAMSFVFADYQSKSIIDIVEDRRLHSLTEYFSRFSLEARNNVKYICMDMYTSYISLVNSIFPNAKIVLDKFHIVNLVNRAFNQTRISIMNSIQDDSLKRKFKLFWKSLLKYYPDLCQINYYCQSFKRKLSSKLSLRKKP,not soluble
10,MAGDPMSRRVIRTYKLAVPGHLSQTCEELNRTAARIYNKTMSLVRKIHQKKGFWLSWPTADKYILRWAENIKIHVHSKQAFVQLYFQALKGYFKATKKNPDAKPPHKKKRYLPFIWKESAVKLLPDGTLRLSLGKERESFVVQTPLKPPLRIKQTRLVFEDGYYLHLAIEVEIEEKNAGSGVMAVDLGVLRPITCFDGKEVISYHGGVLSSVLRYRNKRLASFQSAIAECKKGSRRYNKLVRAKKRVLRRLRNQINDIMHKITSNFIGLCLRKQIGTIVIGDVTGIRERADYSDNANQKIHQWQFRKLIEMIRYKAEQFGIEVKLISEANTSKTCPVCGAKNNPNGRRYHCKACGFEYHRDGVGAINIWKRYPGTGQVVAGLAPVRGVRFHPHLCGHGASLAPWKVALEHHHHHH,not soluble
11,MSLALSRIDGQDELFVGGLWALRRSDSLTDRRITHVLSLVPFDISSLKNFKDEPWIDYGKDFRHQLIDIDDVEDSDLLIELPKAVRFIEEGLGANYMEHADDDGGVSLEKDVDVVEKKRKKKGGVFVHCAVGKSRSVSAVIAYLLRRYPSRFDPNITPTAISDPSQSTGSETSAEKRSRKETAQEAVHAALTYVRRTRPMAEPNEGFMEQLALWWEMEEGHHHHHH,not soluble
12,IQEHAIDLSQKSALVIDEELYLPELSLDTLKGLETLAPFGMNNKKPIFLLRDFTVKQVRTMGQNGAHLKLKVAQEQAVFDLLAFNYGSLVTEFQQAQHLELAVTLSVNRWNGNTSLQ,not soluble
13,MGSDKIHHHHHHMPPNFHADTPLAQRMRPTTLDTIIGQEHLLAVGAPLRRLVEQGHLPSIILHGEAGIGKTTIAMLLADAVGRPFHALSALNTGVKQLREVLDSKDSLSFESPVVFIDEIHRFNKAQQDALLGAVESGDITLIGATTENPSFSVNNALLSRCQVYRLEPLTPEQISAVLQRALLEDNVLKQLSIDLQAQQTISQLAHGDARKSLNLLELAIQTADTKQSPIIIDDALVARVAQTALVRYDKDGEQHYDIVSAMIKSVRGSDPDAALYWMARMLVGGEPADFIARRLVILASEDIGNANPNALLLADAALRSVQSIGMPEARIILGQVVVYLATSAKSNSTYNAINAAMSLAEKDASPVPLHLRNGVTKLMRQQGYGQDYVYPHNYPNHYYAQNYLPDKLIGTRFYEFADNQREQHSKQFVDWLKSQAASND,not soluble
14,GPGYNEPQDKKTMMMNEEDDGNGMDELLAVLGYKVRSSEMADVAQKLEQLEVMMSNVQEDDLSQLATETVHYNPAELYTWLDSMLTDLNPPSSNAEYDLKAIPGDAILNQ,soluble
15,MKMFLAQKGVPFEFVNAREDEEARKKVTALAGSPTAGVVLEWEGGTEVIRGVSPASLHAWLARYRGKEA,soluble
16,MEWFGIGAGTLRQGDRADFAVIDPTHLDESVDGYHEEAVPYYGGLRRMVNRNDATVVATGVGGTVVFRGGQFGGQFRLEHHHHHH,not soluble
17,MTKVSVVGAAGTVGAAAGYNIALRDIADEVVFVDIPDKEDDTVGQAADTNHGIAYDSNTRVRQGGYEDTAGSDVVVITAGIPRQPGQTRIDLAGDNAPIMEDIQSSLDEHNDDYISLTTSNPVDLLNRHLYEAGDRSREQVIGFGGRLDSARFRYVLSEEFDAPVQNVEGTILGEHGDAQVPVFSKVSVDGTDPEFSGDEKEQLLGDLQESAMDVIERKGATEWGPARGVAHMVEAILHDTGEVLPASVKLEGEFGHEDTAFGVPVSLGSNGVEEIVEWDLDDYEQDLMADAAEKLSDQYDKIS,soluble
18,VTDHVREADDANIDDLLGDLGGTARAERAKLVEWLLEQGITPDEIRATNPPLLLATRHLVGDDGTYVSAREISENYGVDLELLQRVQRAVGLARVDDPDAVVHMRADGEAAARAQRFVELGLNPDQVVLVVRVLAEGLSHAAEAMRYTALEAIMRPGATELDIAKGSQALVSQIVPLLGPMIQDMLFMQLRHMMETEAVNAGERAAGKPLPGARQVTVAFADLVGFTQLGEVVSAEELGHLAGRLAGLARDLTAPPVWFIKTIGDAVMLVCPDPAPLLDTVLKLVEVVDTDNNFPRLRAGVASGMAVSRAGDWFGSPVNVASRVTGVARPGAVLVADSVREALGDAPEADGFQWSFAGPRRLRGIRGDVRLFRVRRGATRTGSGGAAQDDDLAGSSP,soluble
19,KEENNFINLYTVKNPLKCKIVDKINLVRPNSPNEVYHLEINHNGLFKYLEGHTCGIIPYYNELDNNPNNQINKDHNIINTTNHTNHNNIALSHIKKQRCARLYSISSSNNMENLSVAIKIHKYEQTENAPNITNYGYCSGFIKNLKINDDIYLTGAHGYFNLPNDAIQKNTNFIFIATGTGISPYISFLKKLFAYDKNNLYNRNSNYTGYITIYYGVYNEDSILYLNELEYFQKMYPNNINIHYVFSYKQNSDATSFYVQDEIYKRKTEFLNLFNNYKCELYICGLKSIRYKVMDILKSHDQFDEKKKKRVHVEVY,soluble
20,MGSDKIHHHHHHMIHLAVGRFNIDIIVKLDSIPPIDSSHMTDVLEIMPGGAATNYAVAVTKLGHSAKLLAKVGKSEVVRSLMEKVVELGVGLEYVEELNEKPSATLIFLRNDGTLSMVRRLGASILLTREDVKRRFGLFDVIHFASVSPNVVVRDPYAKLVSYDPGPQAKNIESVDVDILYVNEKEYEMIEDKNIRARFIVIKMGKKGAKIITETEECSVEPIQVEKIVDTTGAGDTFDAAFNVTYSEDKDIVKSLQVASVASGLKVSRIGGISSPTLEEVREYLRKKKPNVICK,not soluble
